{"source": "paper PMC2859543", "binders": {"B1": {"name": "His6-tagged Tup12 (natural protein)", "chain": "MATSNVSSRVNELLEAVKKEFEDICQKTKTVEAQKDDFEYKAMISAQINEMALMKQTVMDLEMQQSKVKDRYEEEITSLKAQLEARRKEIASGVVPQSSKTKHGRNSVSFGKYGNAGPFNSDNSSKPLILNNGSSGGTPKNLRSPAIDSDGTVLAPIQTSNVDLGSQYYSSPHVRPAVGATMAGSAMRTFPSNLPLGHPPPPSDSANSSVTPIAAPLVVNGKVSGNPPYPAEIIPTSNVPNREEKDWTVTSNVPNKEPPISVQLLHTLEHTSVICYVRFSADGKFLATGCNRAAMVFNVETGKLITLLQEESSKREGDLYVRSVAFSPDGKYLATGVEDQQIRIWDIAQKRVYRLLTGHEQEIYSLDFSKDGKTLVSGSGDRTVCLWDVEAGEQKLILHTDDGVTTVMFSPDGQFIAAGSLDKVIRIWTSSGTLVEQLHGHEESVYSVAFSPDGKYLVSGSLDNTIKLWELQCVSNVAPSMYKEGGICKQTFTGHKDFILSVTVSPDGKWIISGSKDRTIQFWSPDSPHSQLTLQGHNNSVISVAVSPNGHCFATGSGDLRARIWSYEDL"}, "B2": {"name": "His6-tagged Tup11 (natural protein)", "chain": "MASVEDATKVQEMLDALKAEYNALAHHSFASKARGNDYESSMIQSQIQEIEAFRKTVDDMYEKQKSIRETYEKDINKLKRELEELGVEANTASYRNRGERSELAASNNQVTHIDQEHPSQTKSTSQPPSNHLPAFQQIPPIHQSAYPQNNVAEVLMPPIPPSVEASSGQNFNQGIASQNPAISTSNLPSTTPLYIPPVNYGANQVSQQPNPQLPGVSNYYNPSATSKPAVNVQPPRIPTKATPSAEPSMTASANAGSISQAGPDGEYQGREQIAPVSDTEAARKTTSQSWYVTYNPACKRVFNINLVHTLEHPSVVCCVKFSNNGKYLATGCNQAANVFDVQTGKKLFTLHEESPDPSRDLYVRTIAFSPDGKYLVTGTEDRQIKLWDLSTQKVRYVFSGHEQDIYSLDFSHNGRFIVSGSGDRTARLWDVETGQCILKLEIENGVTAIAISPNDQFIAVGSLDQIIRVWSVSGTLVERLEGHKESVYSIAFSPDSSILLSGSLDKTIKVWELQATRSVGLSAIKPEGICKATYTGHTDFVLSVAVSPDSRWGLSGSKDRSMQFWDLQTGQSYLTCQGHKNSVISVCFSPDGRQFASGSGDLRARIWSIDPASP"}}, "target": "GST-cLkh1^ΔLA (LAMMER motif-deleted Lkh1 catalytic domain) (S. pombe)", "experiment": "pull-down", "data": [{"binder": "B1", "values": [{"measurement": "percent of the substrate-binding activity of GST-cLkh1 and GST-cLkh1^K391R", "result": 30, "unit": "%"}]}, {"binder": "B2", "values": [{"measurement": "percent of the substrate-binding activity of GST-cLkh1 and GST-cLkh1^K391R", "result": 30, "unit": "%"}]}]}
